Broadly, the Kd is the equilibrium constant for the complex coming apart.

The values below come from article PMC12380113.

Series [1] deals with T1, CD34 (human orbital fibroblasts) (Homo sapiens) (UniProt P28906).
T1 sequence: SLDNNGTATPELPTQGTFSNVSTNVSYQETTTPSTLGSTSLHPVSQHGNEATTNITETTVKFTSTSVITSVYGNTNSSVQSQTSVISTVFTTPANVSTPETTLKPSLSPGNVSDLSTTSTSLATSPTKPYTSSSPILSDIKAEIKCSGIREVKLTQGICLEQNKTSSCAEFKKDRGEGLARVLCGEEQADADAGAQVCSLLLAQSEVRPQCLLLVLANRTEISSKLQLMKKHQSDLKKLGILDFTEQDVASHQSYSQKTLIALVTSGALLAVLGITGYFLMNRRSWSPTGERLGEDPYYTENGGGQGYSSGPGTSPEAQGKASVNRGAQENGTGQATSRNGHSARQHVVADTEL
In words: flow cytometry. Conditions: whole-cell binding to human orbital fibroblasts, 4 C, 1 h, SELEX binding buffer: DPBS, 4.5 mg/mL D-glucose, 5 mM MgCl2, 1 mg/mL BSA, 1 mg/mL yeast tRNA, flow cytometry at 4 C, pull-down lysis buffer 5 mM …. On the technique in general: A flow cytometer gives signals particle by particle.

The target in series [2] is T2, CD34 (mouse orbital fibroblasts) (Mus musculus) (UniProt Q64314).
T2 sequence: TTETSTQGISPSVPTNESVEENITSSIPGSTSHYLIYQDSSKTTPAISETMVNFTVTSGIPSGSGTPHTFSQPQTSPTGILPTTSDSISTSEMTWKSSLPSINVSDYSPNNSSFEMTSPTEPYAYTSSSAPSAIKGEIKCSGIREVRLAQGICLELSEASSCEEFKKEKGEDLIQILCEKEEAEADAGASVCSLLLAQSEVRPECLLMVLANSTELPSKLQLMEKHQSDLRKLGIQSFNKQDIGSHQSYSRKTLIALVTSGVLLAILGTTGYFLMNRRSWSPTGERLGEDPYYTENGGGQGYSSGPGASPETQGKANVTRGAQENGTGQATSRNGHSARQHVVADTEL
As to the kind of experiment: flow cytometry. Conditions: whole-cell binding to mouse orbital fibroblasts, 4 C, 1 h, SELEX binding buffer: DPBS, 4.5 mg/mL D-glucose, 5 mM MgCl2, 1 mg/mL BSA, 1 mg/mL yeast tRNA, flow cytometry at 4 C, pull-down lysis buffer 5 mM ….

Turning to “CAGCACCGTCAACTGAATCTCATTGCGGCGTCCGGCTGGACGTTATTGTTGGAACCGTGATGCGATGGAGATGT [CD34 Apt (FAM)]”, the Kd in series [1] was 19.1 nM; in series [2] it was 90.3 nM.
